Tests used:
[1] = target: hMPV A1 F monomer (trypsinized monomeric prefusion hMPV F) (human metapneumovirus subgroup A1; …, UniProt H6X1Z1, strain)
[2] = target: hMPV A1 F trimer (heated), postfusion hMPV F (human metapneumovirus subgroup A1; …, UniProt H6X1Z1, strain)

Binder | binding result [1] | binding result [2]
MPV482 (antibody, V domains shown) VH: QVQLVQSGGGVVQPGRSLRLSCAASGFTFSSFAMHWVRQAPGKGLEWVALISDDGNNKYHADSVKGRFTISRDSSKNTLYLQMNSLRGEDTAVYYCARDGSVVGAAAHCDHWGQGTLVTVSS VL: SYELTQPPSVSVSPGQTARITCSGDALPNQCAYWYQQKPGLAPVLLIYKDKERPSGIPERFSGSISGTTVTLTISGVQAEDEADYYCQSSDSSSTVVFGGGTKLTVL | binds | binds
MPV486 (antibody, V domains shown) VH: QVQLVESGGHLVQSGGSLRLSCAASGFTFSNYILNWVRQAPGKGLEWISYITGGSSAIYYADSVKGRFTISRDDAKNSLYLQMNNLRAEDTAVYYCARSHGYDSSGYYYYFAMDVWGQGTTVTVSS VL: QSVLTQPPSASGTPGQRVTISCSGSNSNIESNTVNWYQQIPGTAPKLLIYSDNRRPSGVPDRFSGSKSGTSASLAISGLQSEDEADYYCAAWDDSLIGYVFGTGTKVTV | binds | binds
MPV464 (antibody, V domains shown) VH: QVQLQESGPGLVKPSQTLSLTCTVSGGSVRGGGDYWSWIRRPPGKGLEWIGHIYNSGTTFYNPSLKSRVTISIDTSKNQFSLKLRSVTAADTAVYYCGRVGSRATGLPDWIDPWGQGTLVTVSS VL: SYELTQPPSVSVSPGQTATITCSGTNLGAKYSCWYQQKPGQSPVLVIFQDNKRASGIPARFSASTSGDTATLTISGTQVMDEADYFCQAWDSRTAVFGGGTTLTV | binds | binds
MPV454 (antibody, V domains shown) VH: QVQLVESGGGLVKPGGSLRLSCSTSGFVFSSYAMHWVRQAPGKGLEHVSAISSTGDNTHYADSVKGRFTISRDNSRGRLYLQMTSVRPEDAALYYCVKDLYSGRFYYFLDDWGQGTRIIVSS VL: DIQVTQSPSSLSASVGDRVTISCRASQNISNYLNWFQQRPGKAPKLLIYVASTLQSGAPSRFSGSGSGTDFTLTITDLQPEDFATYYCQQSYNTPPITFGQGTRLEIK | binds | binds
MPV481 (antibody, V domains shown) VH: QVQLVQSGGGLVKPGGSLRLSCAASGLPFNNAWMNWVRQAPGKGLEWVGRIKSKIDGGTTEYAAPVKGRFTISRDDSENTLYLQMNSLRTEDTAVYYCTTEYYALLSGNYSDCWGQGTLVTVSS VL: IRLMTQSPFSLSLSPGERATLSCRASQSIKRAYLGWYQQKPGQAPRLLIYGASNRATGIPDRFSGSGSGTDFTLTISRLEPEDFAVYYCQQYGDSPGGSFGQGTKLEIR | binds | binds
MPV491 (antibody, V domains shown) VH: QVQLQESGPGLVKSSQTLSLTCTVSGGSISSVTSHWTWIRQHPGKGLEWIGYIFSSGTTYYSPSLRSRLTMSVDTSKNQFSLQLSSVTAADTAMYYCARGIYCGDSCYKGTDYWGRGTLVTVSS VL: IRLMTQTPVTLPVTPGEPASISCRSSQSLLHSNGYNYLDWYLQKPGQSPQLLIYRGSTRASGVPDRFSGSGSGTEFTLKISRVEAEDVGVYYCMQGLQTPYTFGQGTKLESR | binds | binds
MPV485 (antibody, V domains shown) V domain 1: QVQLQEPGPGLVKPSETLSLTCTVSGGSISSTNSFWGWVRQPPGKGLEWIGSIYYSGTTYYNSSLKSRVTISVDTSKNQFSLRLSSVTAADTAVYYCARQGLTSSWYDGSGLDVWG V domain 2: SYELTQPPSVSVSPGQTASITCSGDKLGNKYACWYQQRPGQSPVLVIYQDTKRPSGIPERFSGSNSGNTATLTISGTQAMDEADYYCQAWDSNTVVFGGGTKLTVL | binds | binds
